{"source": "patent US20220308072A1", "key": {"[1]": {"target": "Recombinant, his tagged full length human frataxin protein (Abcam ab95502) (human) (UniProt Q16595)", "sequence (Q16595 42-210)": "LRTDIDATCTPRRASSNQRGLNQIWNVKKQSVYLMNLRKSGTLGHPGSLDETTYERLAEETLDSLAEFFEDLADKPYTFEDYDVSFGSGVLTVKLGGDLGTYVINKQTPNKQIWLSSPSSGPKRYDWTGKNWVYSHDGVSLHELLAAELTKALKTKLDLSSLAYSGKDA", "assay": "Simoa sandwich 2-step; capture Ab-2"}, "[2]": {"target": "Recombinant, his tagged full length human frataxin protein (Abcam ab95502) (human) (UniProt Q16595)", "assay": "Simoa sandwich 2-step (120 min-5 min); capture Ab-1; frataxin 2.74 pg/mL"}, "[3]": {"target": "Recombinant, his tagged full length human frataxin protein (Abcam ab95502) (human) (UniProt Q16595)", "assay": "Simoa sandwich 3-step; capture Ab-1; frataxin 10000 pg/mL"}, "[4]": {"target": "Recombinant, his tagged full length human frataxin protein (Abcam ab95502) (human) (UniProt Q16595)", "assay": "Simoa sandwich 2-step; capture Ab-1; frataxin 2.06 pg/mL"}, "[5]": {"target": "Recombinant, his tagged full length human frataxin protein (Abcam ab95502) (human) (UniProt Q16595)", "assay": "Simoa sandwich 3-step; capture Ab-1; frataxin 100 pg/mL"}, "[6]": {"target": "Recombinant, his tagged full length human frataxin protein (Abcam ab95502) (human) (UniProt Q16595)", "assay": "Simoa sandwich 2-step; capture Ab-2; frataxin 1000 pg/mL"}, "[7]": {"target": "Recombinant, his tagged full length human frataxin protein (Abcam ab95502) (human) (UniProt Q16595)", "assay": "Simoa sandwich 2-step (120 min-5 min); capture Ab-1; Diluent 1 + 5% NCS; frataxin 2.47 pg/mL"}, "[8]": {"target": "Recombinant, his tagged full length human frataxin protein (Abcam ab95502) (human) (UniProt Q16595)", "assay": "Simoa sandwich 2-step (35 min-5 min); capture Ab-1; with helper beads; frataxin 0.686 pg/mL"}, "[9]": {"target": "Recombinant, his tagged full length human frataxin protein (Abcam ab95502) (human) (UniProt Q16595)", "assay": "Simoa sandwich 3-step; capture Ab-2; frataxin 1000 pg/mL"}, "[10]": {"target": "Recombinant, his tagged full length human frataxin protein (Abcam ab95502) (human) (UniProt Q16595)", "assay": "Simoa sandwich 2-step (120 min-5 min); capture Ab-1; frataxin 667 pg/mL"}, "[11]": {"target": "Recombinant, his tagged full length human frataxin protein (Abcam ab95502) (human) (UniProt Q16595)", "assay": "Simoa sandwich 2-step (35 min-5 min); capture Ab-1; with helper beads; frataxin 2.06 pg/mL"}, "[12]": {"target": "Recombinant, his tagged full length human frataxin protein (Abcam ab95502) (human) (UniProt Q16595)", "assay": "Simoa sandwich 2-step (120 min-5 min); capture Ab-1; Diluent 1 + 10% NCS; frataxin 4.12 pg/mL"}, "[13]": {"target": "Recombinant, his tagged full length human frataxin protein (Abcam ab95502) (human) (UniProt Q16595)", "assay": "Simoa sandwich 3-step; capture Ab-5; frataxin 100 pg/mL"}, "[14]": {"target": "Recombinant, his tagged full length human frataxin protein (Abcam ab95502) (human) (UniProt Q16595)", "assay": "Simoa sandwich 3-step; capture Ab-1"}, "[15]": {"target": "Recombinant, his tagged full length human frataxin protein (Abcam ab95502) (human) (UniProt Q16595)", "assay": "Simoa sandwich 2-step; capture Ab-2; frataxin 500 pg/mL"}, "[16]": {"target": "Recombinant, his tagged full length human frataxin protein (Abcam ab95502) (human) (UniProt Q16595)", "assay": "Simoa sandwich 3-step; capture Ab-2; frataxin 100 pg/mL"}, "[17]": {"target": "Recombinant, his tagged full length human frataxin protein (Abcam ab95502) (human) (UniProt Q16595)", "assay": "Simoa sandwich 2-step (35 min-5 min); capture Ab-1; with helper beads"}, "[18]": {"target": "Recombinant, his tagged full length human frataxin protein (Abcam ab95502) (human) (UniProt Q16595)", "assay": "Simoa sandwich 2-step; capture Ab-2; frataxin 6.17 pg/mL"}, "[19]": {"target": "Recombinant, his tagged full length human frataxin protein (Abcam ab95502) (human) (UniProt Q16595)", "assay": "Simoa sandwich 2-step (120 min-5 min); capture Ab-1; Diluent 1 + 5% NCS; frataxin 7.41 pg/mL"}, "[20]": {"target": "Recombinant, his tagged full length human frataxin protein (Abcam ab95502) (human) (UniProt Q16595)", "assay": "Simoa sandwich 2-step (120 min-5 min); capture Ab-1; Diluent 1 + 10% NCS; frataxin 66.7 pg/mL"}, "[21]": {"target": "Recombinant, his tagged full length human frataxin protein (Abcam ab95502) (human) (UniProt Q16595)", "assay": "Simoa sandwich 2-step; capture Ab-1; 50 pM SβG; frataxin 0.686 pg/mL"}, "[22]": {"target": "Recombinant, his tagged full length human frataxin protein (Abcam ab95502) (human) (UniProt Q16595)", "assay": "Simoa sandwich 2-step (35 min-5 min); capture Ab-1; with helper beads; frataxin 500 pg/mL"}, "[23]": {"target": "Recombinant, his tagged full length human frataxin protein (Abcam ab95502) (human) (UniProt Q16595)", "assay": "Simoa sandwich 2-step (120 min-5 min); capture Ab-1; Diluent 1 + 10% NCS"}, "[24]": {"target": "Recombinant, his tagged full length human frataxin protein (Abcam ab95502) (human) (UniProt Q16595)", "assay": "Simoa sandwich 2-step (120 min-5 min); capture Ab-1; Diluent 1 + 5% NCS; frataxin 66.7 pg/mL"}, "[25]": {"target": "Recombinant, his tagged full length human frataxin protein (Abcam ab95502) (human) (UniProt Q16595)", "assay": "Simoa sandwich 2-step; capture Ab-1; 150 pM SβG; frataxin 55.6 pg/mL"}}}
{"substance": "Ab-3, mouse monoclonal [18A5DB1] to Frataxin (Abcam ab110328) (antibody)", "values": [{"measurement": "LOD", "setting": "[1]", "result": 0.23, "unit": "pg/mL"}, {"measurement": "AEB rep1", "setting": "[2]", "result": 0.0165, "unit": "AEB"}, {"measurement": "AEB rep2", "setting": "[2]", "result": 0.0248, "unit": "AEB"}, {"measurement": "AEB rep3", "setting": "[2]", "result": 0.0202, "unit": "AEB"}, {"measurement": "Ave AEB", "setting": "[2]", "result": 0.0205, "unit": "AEB"}, {"measurement": "S/B", "setting": "[2]", "result": 2.48}, {"measurement": "Ave AEB", "setting": "[3]", "result": 28.5, "unit": "AEB"}, {"measurement": "S/B", "setting": "[3]", "result": 576}, {"measurement": "Ave AEB", "setting": "[4]", "result": 0.318, "unit": "AEB"}, {"measurement": "S/B", "setting": "[4]", "result": 3.06}, {"measurement": "Ave AEB", "setting": "[5]", "result": 2.5, "unit": "AEB"}, {"measurement": "S/B", "setting": "[5]", "result": 42.3}, {"measurement": "Ave AEB", "setting": "[6]", "result": 37.3, "unit": "AEB"}, {"measurement": "S/B", "setting": "[6]", "result": 462}, {"measurement": "Ave AEB", "setting": "[7]", "result": 0.0609, "unit": "AEB"}, {"measurement": "S/B", "setting": "[7]", "result": 3.37}, {"measurement": "AEB Rep1", "setting": "[8]", "result": 0.0586, "unit": "AEB"}, {"measurement": "AEB Rep2", "setting": "[8]", "result": 0.0638, "unit": "AEB"}, {"measurement": "Ave AEB", "setting": "[8]", "result": 0.0612, "unit": "AEB"}, {"measurement": "S/B", "setting": "[8]", "result": 2.51}, {"measurement": "Ave AEB", "setting": "[9]", "result": 20.7, "unit": "AEB"}, {"measurement": "S/B", "setting": "[9]", "result": 330}, {"measurement": "AEB rep1", "setting": "[10]", "result": 3.57, "unit": "AEB"}, {"measurement": "AEB rep2", "setting": "[10]", "result": 3.99, "unit": "AEB"}, {"measurement": "AEB rep3", "setting": "[10]", "result": 3.61, "unit": "AEB"}, {"measurement": "Ave AEB", "setting": "[10]", "result": 3.73, "unit": "AEB"}, {"measurement": "S/B", "setting": "[10]", "result": 451}, {"measurement": "AEB Rep1", "setting": "[11]", "result": 0.146, "unit": "AEB"}, {"measurement": "AEB Rep2", "setting": "[11]", "result": 0.143, "unit": "AEB"}, {"measurement": "Ave AEB", "setting": "[11]", "result": 0.144, "unit": "AEB"}, {"measurement": "S/B", "setting": "[11]", "result": 5.93}, {"measurement": "Ave AEB", "setting": "[12]", "result": 0.0283, "unit": "AEB"}, {"measurement": "S/B", "setting": "[12]", "result": 2.63}, {"measurement": "Ave AEB", "setting": "[13]", "result": 2.9, "unit": "AEB"}, {"measurement": "S/B", "setting": "[13]", "result": 15.2}, {"measurement": "LOD", "setting": "[14]", "result": 1.14, "unit": "pg/mL"}, {"measurement": "Ave AEB", "setting": "[15]", "result": 25.1, "unit": "AEB"}, {"measurement": "S/B", "setting": "[15]", "result": 263}, {"measurement": "Ave AEB", "setting": "[16]", "result": 2.44, "unit": "AEB"}, {"measurement": "S/B", "setting": "[16]", "result": 38.9}, {"measurement": "Estimated LLOQ", "setting": "[17]", "result": 0.321, "unit": "pg/mL"}, {"measurement": "LOD", "setting": "[17]", "result": 0.117, "unit": "pg/mL"}, {"measurement": "Ave AEB", "setting": "[18]", "result": 0.737, "unit": "AEB"}, {"measurement": "S/B", "setting": "[18]", "result": 7.72}, {"measurement": "Ave AEB", "setting": "[19]", "result": 0.156, "unit": "AEB"}, {"measurement": "S/B", "setting": "[19]", "result": 8.62}, {"measurement": "Ave AEB", "setting": "[20]", "result": 0.602, "unit": "AEB"}, {"measurement": "S/B", "setting": "[20]", "result": 33.1}, {"measurement": "Ave AEB", "setting": "[21]", "result": 0.0421, "unit": "AEB"}, {"measurement": "S/B", "setting": "[21]", "result": 2.3}, {"measurement": "AEB Rep1", "setting": "[22]", "result": 22.8, "unit": "AEB"}, {"measurement": "AEB Rep2", "setting": "[22]", "result": 22.7, "unit": "AEB"}, {"measurement": "Ave AEB", "setting": "[22]", "result": 22.8, "unit": "AEB"}, {"measurement": "S/B", "setting": "[22]", "result": 935}, {"measurement": "LOD", "setting": "[23]", "result": 0.323, "unit": "pg/mL"}, {"measurement": "Ave AEB", "setting": "[24]", "result": 1.27, "unit": "AEB"}, {"measurement": "S/B", "setting": "[24]", "result": 70.5}, {"measurement": "Ave AEB", "setting": "[25]", "result": 3.69, "unit": "AEB"}, {"measurement": "S/B", "setting": "[25]", "result": 82.3}]}
